This passage reports Kd results from paper PMC7308313.

This data set relates to rLDHA (Homo sapiens). Nature of the data set: SPR. The note with it: His-tag pull-down: protein on beads in 50 mM Na3PO4, 300 mM NaCl, 0.01% Tween-20, pH 8.0, RNA binding 2 h in 3.25 mM Na3PO4, 70 mM NaCl.

What is called Kd is the constant that tells how readily two partners part at equilibrium.

HULC lncRNA (in vitro transcribed) displayed a Kd of 29 nM.
